Here are results for 2 molecules from publication PMC2648313, “Identification of Rhoptry Trafficking Determinants and Evidence for a Novel Sorting Mechanism in the Malaria Parasite Plasmodium falciparum” (PLoS Pathogens, 2009).

Positions count from the first letter of the chain named.

Holding throughout (assay): pull-down; 100 ug His6-tagged RAP1 recombinant protein immobilised on TALON resin, incubated O/N at 4 C with purified GST-fusion proteins in pull-down buffer (50 mM Na2HPO4, 75 mM NaCl, 0.1% Triton X-100, 5 mM imidazole, pH 7.4); eluted with imidazole; Coomassie gel and immunoblot with anti-GST
What all share (conditions): both partners purified
On the technique in general: A western blot detects proteins with antibodies after separation by electrophoresis.

Experiment [1] concerns the target T1, RAP1(22-152) mutant, aspartate 39, 43 and 44 to alanine (P. falciparum 3D7, UniProt Q9U429 22-152, aspartate 39 to alanine | aspartate 43 to alanine | aspartate 44 to alanine).
T1 construct: not shown: His6, C-terminal, kept
T1 sequence: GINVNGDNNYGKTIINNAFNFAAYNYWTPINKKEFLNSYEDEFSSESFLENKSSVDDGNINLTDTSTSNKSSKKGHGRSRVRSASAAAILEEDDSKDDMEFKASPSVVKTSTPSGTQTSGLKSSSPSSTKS

Experiment [2] addresses T2, RAP1(22-152), recombinant His6-tagged RAP1 protein representing amino acids 22-152 (P. falciparum 3D7, UniProt Q9U429 22-152).
T2 construct: contains the RAP1 rhoptry signal (22-55); Amplified from 3D7 genomic DNA, cloned NcoI/XhoI into pET28b upstream of the His6 tag; not shown: His6, C-terminal, kept
T2 sequence: T1 sequence with A18D, A22D, A23D

Experiment [3] deals with T3, RAP1(22-152) mutant, aspartate 39, 43 and 44 to arginine (P. falciparum 3D7, UniProt Q9U429 22-152, aspartate 39 to arginine | aspartate 43 to arginine | aspartate 44 to arginine).
T3 construct: not shown: His6, C-terminal, kept
T3 sequence: T1 sequence with A18R, A22R, A23R

Experiment [4] has as its target T4, RAP1(22-152) mutant, residues 40, 42 and 45 to glycine (P. falciparum 3D7, UniProt Q9U429 22-152, aromatic residue 40 to glycine | aromatic residue 42 to glycine | aromatic …).
T4 construct: not shown: His6, C-terminal, kept
T4 sequence: T1 sequence with A18D, F19G, F21G, A22D, A23D, Y24G

B1: RAMAE, RAMA-GST fusion protein representing amino acids 759-840 (domain or fragment)
chain: DNKFVAHKKREKSISPHSYQKVSTKVQNKENMENKEKKQLINDEAAMTAEELVELENTEDVNTPTMVETEEIDFDENGNKSS
notes: rhoptry associated membrane antigen (RAMA), P. falciparum, amino acids 759-840; source: E. coli BL21 (DE3), purified (glutathione resin)
For B1, the binding result in experiment [1], in experiment [2], in experiment [3] and in experiment [4] was “binds” in each case.

B2: RAMAE1, RAMA-GST fusion protein representing amino acids 759-798 (domain or fragment)
chain: DNKFVAHKKREKSISPHSYQKVSTKVQNKENMENKEKKQL
notes: rhoptry associated membrane antigen (RAMA), P. falciparum, amino acids 759-798; Amplified from P. falciparum cDNA and cloned into pGEX-4T-1; source: E. coli BL21 (DE3), purified (glutathione resin)
For the molecule B2, in experiment [2], the binding result was “binds”.
